Here are results for 15 variants from IntAct's records for PubMed 31515488.

Sequences and labels used below:
B1: Peroxisomal bifunctional enzyme (Homo sapiens), Q08426 (parent)
chain: MAEYTRLHNALALIRLRNPPVNAISTTLLRDIKEGLQKAVIDHTIKAIVICGAEGKFSAGADIRGFSAPRTFGLTLGHVVDEIQRNEKPVVAAIQGMAFGGGLELALGCHYRIAHAEAQVGLPEVTLGLLPGARGTQLLPRLTGVPAALDLITSGRRILADEALKLGILDKVVNSDPVEEAIRFAQRVSDQPLESRRLCNKPIQSLPNMDSIFSEALLKMRRQHPGCLAQEACVRAVQAAVQYPYEVGIKKEEELFLYLLQSGQARALQYAFFAERKANKWSTPSGASWKTASARPVSSVGVVGLGTMGRGIVISFARARIPVIAVDSDKNQLATANKMITSVLEKEASKMQQSGHPWSGPKPRLTSSVKELGGVDLVIEAVFEEMSLKKQVFAELSAVCKPEAFLCTNTSALDVDEIASSTDRPHLVIGTHFFSPAHVMKLLEVIPSQYSSPTTIATVMNLSKKIKKIGVVVGNCFGFVGNRMLNPYYNQAYFLLEEGSKPEEVDQVLEEFGFKMGPFRVSDLAGLDVGWKSRKGQGLTGPTLLPGTPARKRGNRRYCPIPDVLCELGRFGQKTGKGWYQYDKPLGRIHKPDPWLSKFLSRYRKTHHIEPRTISQDEILERCLYSLINEAFRILGEGIAASPEHIDVVYLHGYGWPRHKGGPMFYASTVGLPTVLEKLQKYYRQNPDIPQLEPSDYLKKLASQGNPPLKEWQSLAGSPSSKL
B2: Septin-12 (Homo sapiens), Q8IYM1 (parent)
chain: MDPLRRSPSPCLSSQPSSPSTPPCEMLGPVGIEAVLDQLKIKAMKMGFEFNIMVVGQSGLGKSTMVNTLFKSKVWKSNPPGLGVPTPQTLQLHSLTHVIEEKGVKLKLTVTDTPGFGDQINNDNCWDPILGYINEQYEQYLQEEILITRQRHIPDTRVHCCVYFVPPTGHCLRPLDIEFLQRLCRTVNVVPVIARADSLTMEEREAFRRRIQQNLRTHCIDVYPQMCFDEDINDKILNSKLRDRIPFAVVGADQEHLVNGRCVLGRKTKWGIIEVENMAHCEFPLLRDLLIRSHLQDLKDITHNIHYENYRVIRLNESHLLPRGPGWVNLAPASPGQLTTPRTFKVCRGAHDDSDDEF
partner: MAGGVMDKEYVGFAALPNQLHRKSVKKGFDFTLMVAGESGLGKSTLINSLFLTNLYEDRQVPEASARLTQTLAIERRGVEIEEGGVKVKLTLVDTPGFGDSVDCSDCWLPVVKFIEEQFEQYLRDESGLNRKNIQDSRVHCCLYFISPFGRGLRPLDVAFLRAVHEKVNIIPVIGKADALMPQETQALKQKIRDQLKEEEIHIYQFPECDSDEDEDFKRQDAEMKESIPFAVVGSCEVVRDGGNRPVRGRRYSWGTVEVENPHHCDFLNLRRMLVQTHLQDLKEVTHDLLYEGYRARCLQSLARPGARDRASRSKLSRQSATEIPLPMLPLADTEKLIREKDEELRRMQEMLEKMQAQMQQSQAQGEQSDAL

The first assay covers variants of B1. As to conditions: with tpp2_human TPP2, P29144.
On to S703F, for which the “effect of a mutation on the interaction” value is given as “with no effect”.
Turning to I646T, the “effect of a mutation on the interaction” value is given as “disrupting interaction strength”.
On the same count and under the same terms, next, L715S: “with no effect”.

The variants in the next assay derive from B1. As to conditions: with actb_human ACTB.
In the case of S703F, the “effect of a mutation on the interaction” value is reported as “with no effect”.
Take I646T: the “effect of a mutation on the interaction” value is given as “disrupting interaction strength”.
Regarding L715S, the “effect of a mutation on the interaction” value was “with no effect”.

Variants of B1 are the subject of another assay. To be noted: with actg_human ACTG1, P63261.
Turning to S703F, the “effect of a mutation on the interaction” value is recorded as “with no effect”.
On to I646T, for which the “effect of a mutation on the interaction” value was “disrupting interaction strength”.
For the variant L715S, the “effect of a mutation on the interaction” value is reported as “with no effect”.

The next assay covers variants of B1. To be noted: with tnip1_human TNIP1, Q15025.
Chain of tnip1_human TNIP1, Q15025 (Q15025 whole entry): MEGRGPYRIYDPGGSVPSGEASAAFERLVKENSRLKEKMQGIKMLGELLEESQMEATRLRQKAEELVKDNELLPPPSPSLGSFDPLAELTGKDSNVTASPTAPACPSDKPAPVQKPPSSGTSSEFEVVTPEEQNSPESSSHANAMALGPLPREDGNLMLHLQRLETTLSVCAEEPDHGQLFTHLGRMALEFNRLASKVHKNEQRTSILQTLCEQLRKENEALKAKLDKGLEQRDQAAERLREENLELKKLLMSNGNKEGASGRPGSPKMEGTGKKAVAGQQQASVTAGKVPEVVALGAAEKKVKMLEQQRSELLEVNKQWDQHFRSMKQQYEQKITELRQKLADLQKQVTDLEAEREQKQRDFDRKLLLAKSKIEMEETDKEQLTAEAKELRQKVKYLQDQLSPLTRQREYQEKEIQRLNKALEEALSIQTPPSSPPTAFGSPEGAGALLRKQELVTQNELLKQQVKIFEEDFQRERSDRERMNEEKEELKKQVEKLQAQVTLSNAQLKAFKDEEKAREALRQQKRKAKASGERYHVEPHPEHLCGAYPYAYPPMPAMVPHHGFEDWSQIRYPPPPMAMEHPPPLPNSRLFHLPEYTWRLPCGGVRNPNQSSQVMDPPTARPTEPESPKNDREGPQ
In the case of S703F, the “effect of a mutation on the interaction” value was “with no effect”.
As to I646T, the “effect of a mutation on the interaction” value is listed as “disrupting interaction strength”.
Same read-out and setting: next, L715S: “with no effect”.

In the next assay the parent is B2. As to conditions: with sept1_human SEPTIN1, Q8WYJ6.
For V222I, the “effect of a mutation on the interaction” value is listed as “disrupting interaction strength”.
The same measure, in the same setting: next, V263D: “disrupting interaction strength”.
Take R204Q: the “effect of a mutation on the interaction” value is reported as “disrupting interaction strength”.
As to R311C, the “effect of a mutation on the interaction” value is recorded as “disrupting interaction strength”.
For the variant Q213R, the “effect of a mutation on the interaction” value is recorded as “disrupting interaction strength”.
As to C184S, the “effect of a mutation on the interaction” value is listed as “with no effect”.
Take K73N: the “effect of a mutation on the interaction” value is on record as “disrupting interaction strength”.
Same read-out and setting: next, V162M: “disrupting interaction strength”.
Take T111M: the “effect of a mutation on the interaction” value is given as “disrupting interaction strength”.
Take T111K: the “effect of a mutation on the interaction” value was “disrupting interaction strength”.

Variants of B2 are the subject of another assay. As to conditions: with sept1_human SEPTIN1, Q8WYJ6. This is another data set of the same source.
Turning to D197N, the “effect of a mutation on the interaction” value is “disrupting interaction strength”.
Regarding G169E, the “effect of a mutation on the interaction” value is given as “disrupting interaction strength”.
